Tests used:
CXCL12 [1] = assay: Bio-Layer Interferometry, CXCL12 immobilized on the AR2G biosensor, CXCL12 trap at 500, 250 and 125 nM
CXCL12 [2] = assay: cell-based or functional assay
CXCL12 [3] = assay: Bio-Layer Interferometry (BLI)
CXCL12 [4] = assay: Bio-Layer Interferometry; CXCL12 immobilized on AR2G biosensor, different concentrations of CXCL12 trap

Kd (CXCL12 [1]): 4.1 nM | koff (CXCL12 [1]): 3.64e-05 s⁻¹ | kon (CXCL12 [1]): 8850 M⁻¹ s⁻¹ | invasion of CT-26 FL3 cells stimulated with CXCL12 (100.0 ng/ml) (CXCL12 [2]): 12 µg/mL | migration of CT-26 FL3 cells stimulated with CXCL12 (100.0 ng/ml) (CXCL12 [2]): 8 µg/mL | one-half maximal inhibition [ND50] against biological active CXCL12 (100 ng/ml) in vitro (CXCL12 [2]): 120 nM | one-half maximal inhibition [ND50] of CT-26 FL3 cell migration stimulated with CXCL12 (100 ng/ml) (CXCL12 [2]): 120 nM | Kd (CXCL12 [3]): 4 nM | Kd (CXCL12 [4]): 4 nM
B1: CXCL12 trap (engineered VH-linker-VL fusion protein, expressed in and purified from 293T cells) (scFv, V domains shown, not shown: small tags and cut ends)
VH: EVQLVESGGGLVQPGGSLRLSCAASGFSLTVYSVHWVRQAPGKGLEWVGALWGSGGTEYNSNLKSRFTISRDTSKNTVYLQMNSLRAEDTAVYYCARDQGLNYGSLFDYWGQGTLVTVSS
VL: DIQMTQSPSSLSASVGDRVTITCRASESISYSLSWYQQKPGKAPKLLIYNAVKLESGVPSRFSGSGSGTDFTLTISSLQPEDFATYYCKQYWNTPFTFGQGTKVEIKR
modifications: flexible linker; C-terminal E tag, His6 tag
